The values below come from patent EP1222208B1 (THE GENERAL HOSPITAL CORPORATION, dated 2008).

Common to all, as to assay: cell-based or functional assay
For experiment [1], the target named is T1, human PTH-1 receptor (human, UniProt Q03431 27-593).
T1 sequence (looked up): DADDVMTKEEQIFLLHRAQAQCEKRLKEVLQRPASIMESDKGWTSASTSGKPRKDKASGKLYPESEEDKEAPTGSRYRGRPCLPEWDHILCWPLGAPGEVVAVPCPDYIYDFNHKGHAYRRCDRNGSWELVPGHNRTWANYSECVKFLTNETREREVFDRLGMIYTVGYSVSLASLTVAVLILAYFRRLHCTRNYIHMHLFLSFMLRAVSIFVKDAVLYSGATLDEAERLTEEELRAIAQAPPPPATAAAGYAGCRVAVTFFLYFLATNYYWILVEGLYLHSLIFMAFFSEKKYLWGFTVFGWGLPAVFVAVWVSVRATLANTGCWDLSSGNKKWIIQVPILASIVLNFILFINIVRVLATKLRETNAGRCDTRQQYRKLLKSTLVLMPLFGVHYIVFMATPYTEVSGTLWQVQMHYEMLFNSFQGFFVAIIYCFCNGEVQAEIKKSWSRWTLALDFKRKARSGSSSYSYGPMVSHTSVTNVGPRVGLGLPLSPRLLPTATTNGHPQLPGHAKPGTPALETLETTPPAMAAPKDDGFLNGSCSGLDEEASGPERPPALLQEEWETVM

In the next experiment the target is T2, rat PTH-1 receptor (rat, UniProt P25961 27-591).
T2 sequence (looked up): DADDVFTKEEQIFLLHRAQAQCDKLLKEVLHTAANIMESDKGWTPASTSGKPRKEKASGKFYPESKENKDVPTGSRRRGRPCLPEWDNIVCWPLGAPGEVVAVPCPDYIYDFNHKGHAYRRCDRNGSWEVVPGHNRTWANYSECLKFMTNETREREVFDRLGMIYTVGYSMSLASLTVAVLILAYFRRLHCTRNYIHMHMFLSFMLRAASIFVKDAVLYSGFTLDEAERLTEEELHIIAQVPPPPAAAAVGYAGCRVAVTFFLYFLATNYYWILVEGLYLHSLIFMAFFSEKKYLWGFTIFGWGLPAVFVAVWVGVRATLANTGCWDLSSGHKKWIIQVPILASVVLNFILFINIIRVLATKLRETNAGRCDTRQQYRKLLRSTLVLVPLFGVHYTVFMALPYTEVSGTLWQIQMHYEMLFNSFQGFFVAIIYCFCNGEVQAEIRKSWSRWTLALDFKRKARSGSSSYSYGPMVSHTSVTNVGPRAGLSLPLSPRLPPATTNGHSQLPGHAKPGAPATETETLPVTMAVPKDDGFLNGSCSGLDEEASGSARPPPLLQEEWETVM

The target of experiment [2] is T1, human PTH-1 receptor. The source holds these as a separate data set.
The target in experiment [3] is truncated human PTH-1 receptor hΔNt (human), Q03431.
A further experiment concerns the target human PTH-2 receptor (human, UniProt P49190 25-550).
The target in experiment [4] is T1, human PTH-1 receptor. The source holds these as a separate data set.
The target in experiment [5] is T1, human PTH-1 receptor. The source holds these as a separate data set.

Values joined by “and” are separate entries in the source; they are usually repeats but may differ in a detail not shown here. Equal values may be shown once. Square brackets hold non-standard residues; d marks the D form. Ends that are not written are not given here. Nle = CCCC[C@H](N)C(=O)O

human PTH-2 receptor, sequence (P49190 25-550): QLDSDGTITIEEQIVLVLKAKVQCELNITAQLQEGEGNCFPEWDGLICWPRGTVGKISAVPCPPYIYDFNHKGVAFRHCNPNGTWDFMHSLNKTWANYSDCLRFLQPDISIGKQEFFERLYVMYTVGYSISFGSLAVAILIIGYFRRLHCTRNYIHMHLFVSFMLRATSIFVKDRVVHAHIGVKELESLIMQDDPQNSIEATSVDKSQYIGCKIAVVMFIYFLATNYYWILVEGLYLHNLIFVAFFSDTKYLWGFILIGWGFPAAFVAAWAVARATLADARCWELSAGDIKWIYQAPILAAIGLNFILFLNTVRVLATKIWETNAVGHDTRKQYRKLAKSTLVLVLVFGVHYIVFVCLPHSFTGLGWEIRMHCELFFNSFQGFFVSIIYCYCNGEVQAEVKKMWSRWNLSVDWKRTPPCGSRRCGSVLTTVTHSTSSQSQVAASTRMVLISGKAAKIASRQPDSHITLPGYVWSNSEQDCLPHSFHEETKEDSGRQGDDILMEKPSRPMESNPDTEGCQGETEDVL

B1: [A3,A10,R11,A12,W14]rPTH(1-14)amide (peptide)
peptide: AVAEIQLMHARAKW-NH2
Turning to B1, the “cAMP potency relative to native PTH(1-14), LLC-PK1 cells stably expressing the hPTH-1 receptor” value with human PTH-1 receptor [1] turned out to be 220 fold. Besides, in the experiment with rat PTH-1 receptor, the “cAMP EC50, ROS 17/2.8 cells” value is -5.5 Log M. In addition, the “cAMP EC50, HKRK-B7 cells” value in the experiment with human PTH-1 receptor [2] was -6.3 Log M and 0.6 µM.

B2: [Nle^8,21,Tyr^34]-rPTH(1-34)NH2 (peptide)
peptide: AVSEIQL[Nle]HNLGKHLASVER[Nle]QWLRKKLQDVHNY-NH2
The molecule B2 yielded a cAMP Emax, COS-7 cells, hDeINt (picomole/well) in experiment [3] of 243. The “cAMP EC50, HKRK-B7 cells” value in the experiment with human PTH-1 receptor [2] is -8.6 Log M and 0.0033 µM. The “cAMP EC50, LLC-P2R-22 cells” value with human PTH-2 receptor was -8.4 Log M and 0.0044 µM. In the experiment with human PTH-1 receptor [4], the “cAMP EC50, COS-7 cells, WT hPTH-1 receptor” value (“cAMP EC50, COS-7 cells” below) was -9.2 Log M and 0.0007 µM; the “cAMP Emax, COS-7 cells, WT hPTH-1 receptor” value amounted to 226 picomole/well.

B3: [A3,A10,R11,A12]rPTH(1-14)amide (peptide)
peptide: AVAEIQLMHARAKH-NH2
For the molecule B3, in the experiment with human PTH-1 receptor [1], the “cAMP potency relative to native PTH(1-14), LLC-PK1 cells stably expressing the hPTH-1 receptor” value stood at 160 fold and the “cAMP potency relative to native PTH(1-14), LLC-PK-1 cells stably expressing the hPTH-1 receptor” value came to 100 fold. In experiment [3], this molecule had a cAMP Emax, COS-7 cells, hDeINt (picomole/well) of 250 and a cAMP potency relative to native PTH(1-14), truncated hPTH-1 receptor of 100 fold. Also, the “cAMP EC50, HKRK-B7 cells” value with human PTH-1 receptor [2] was -6.1 Log M and 0.83 µM. In the experiment with human PTH-2 receptor, the “cAMP EC50, LLC-P2R-22 cells” value was -3.9 Log M and 126 µM. In addition, in the experiment with human PTH-1 receptor [4], the “cAMP EC50, COS-7 cells” value was -6 Log M and 4.66 µM; the “cAMP Emax, COS-7 cells, WT hPTH-1 receptor” value came out at 243 picomole/well.

B4: [A3,Q10,R11,A12]rPTH(1-14) (peptide)
peptide: AVAEIQLMHQRAKH-NH2
Regarding B4, the “cAMP EC50, HKRK-B7 cells” value in the experiment with human PTH-1 receptor [2] was -6.1 Log M and 0.8 µM.

B5: [A3,A10,R11]rPTH(1-11) (peptide)
peptide: AVAEIQLMHAR-NH2
On to B5, for which, in experiment [3], the cAMP Emax, COS-7 cells, hDeINt (picomole/well) turned out to be 243. Moreover, in the experiment with human PTH-1 receptor [2], the “cAMP EC50, HKRK-B7 cells” value was -4.8 Log M and 17.1 µM. In the experiment with human PTH-1 receptor [4], the “cAMP EC50, COS-7 cells” value is -4.6 Log M and 29.1 µM; the “cAMP Emax, COS-7 cells, WT hPTH-1 receptor” value was 238 picomole/well.

B6: [A3,A10,R11,A12]rPTH(1-12) (peptide)
peptide: AVAEIQLMHARA-NH2
With B6, in the experiment with human PTH-1 receptor [2], the “cAMP EC50, HKRK-B7 cells” value is -5 Log M and 10.2 µM. Also, the “cAMP EC50, LLC-P2R-22 cells” value with human PTH-2 receptor is -3.5 Log M and 342 µM.

B7: [Tyr^34]human (h)PTH(1-34)NH2 (peptide)
peptide: SVSEIQLMHNLGKHLNSMERVEWLRKKLQDVHNY-NH2
In experiment [3], B7 came in with a cAMP Emax, COS-7 cells, hDeINt (picomole/well) of 238. Moreover, the “cAMP EC50, SAOS-2 cells” value with human PTH-1 receptor [5] was -9.28 Log M and 0.00052 µM. The “cAMP EC50, HKRK-B7 cells” value in the experiment with human PTH-1 receptor [2] was -8.4 Log M and 0.004 µM. Moreover, in the experiment with human PTH-1 receptor [4], the “cAMP EC50, COS-7 cells” value was -9.3 Log M and 0.0005 µM; the “cAMP Emax, COS-7 cells, WT hPTH-1 receptor” value is 226 picomole/well.

B8: native rat (r)PTH(1-14)NH2 (peptide)
peptide: AVSEIQLMHNLGKH-NH2
As to B8, the cAMP Emax, COS-7 cells, hDeINt (picomole/well) in experiment [3] was 222. For the same molecule, in the experiment with human PTH-1 receptor [2], the “cAMP EC50, HKRK-B7 cells” value was -3.9 Log M and 133 µM. Besides, in the experiment with human PTH-1 receptor [4], the “cAMP EC50, COS-7 cells” value was -3.8 Log M and 152 µM; the “cAMP Emax, COS-7 cells, WT hPTH-1 receptor” value stood at 221 picomole/well.

B9: [A3,A10,R11,A12]rPTH(1-13) (peptide)
peptide: AVAEIQLMHARAK-NH2
Turning to B9, the “cAMP EC50, HKRK-B7 cells” value in the experiment with human PTH-1 receptor [2] was -5.6 Log M and 2.4 µM. The “cAMP EC50, LLC-P2R-22 cells” value with human PTH-2 receptor is -4 Log M and 106 µM.
